Test [1] concerns the target T1, human TREM2 expressed on cells (human, UniProt Q9NZC2 19-230).
T1 construct: BW5147.G.1.4 cells stably expressing human TREM2 together with Dap12, or endogenous TREM2 of primary human myeloid cells; also called huT2 BW; hTREM2 expressing cell line
T1 sequence: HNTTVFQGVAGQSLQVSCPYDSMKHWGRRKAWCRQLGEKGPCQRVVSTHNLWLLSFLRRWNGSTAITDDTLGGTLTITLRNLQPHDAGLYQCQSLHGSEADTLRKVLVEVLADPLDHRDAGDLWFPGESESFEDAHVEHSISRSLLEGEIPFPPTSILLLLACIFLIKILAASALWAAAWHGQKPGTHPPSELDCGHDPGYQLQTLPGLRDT
The test can be described thus: FACS, hTREM2 BW cells. In outline: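 Cells were BW5147.G.1.4 stably expressing human TREM2 with Dap12, or human monocyte-derived dendritic cells differentiated 6 days with GM-CSF and IL-4. Antibodies bound 1 h on ice in PBS+2% FBS, then PE anti-human secondary 30 min on ice; flow cytometry read-out as mean fluorescence intensity.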

The target of test [2] is T2, cynomolgus monkey TREM2 Fc fusion (entire TREM2 ECD; only one Fc arm fused to TREM2) (cynomolgus monkey, UniProt Q9NZC2 19-174 (human entry)).
T2 construct: also called cyno TREM2-Fc
T2 chain: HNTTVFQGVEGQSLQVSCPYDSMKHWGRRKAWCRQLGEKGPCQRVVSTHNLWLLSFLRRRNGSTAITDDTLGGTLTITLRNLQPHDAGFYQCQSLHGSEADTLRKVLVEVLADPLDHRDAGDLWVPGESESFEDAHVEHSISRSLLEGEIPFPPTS
Briefly: BLI, Fab, monovalent.

Test [3] has as its target T1, human TREM2 expressed on cells. Briefly: FACS, hTREM2 BW cells. This is another data set of the same source.
For test [4], the target named is T3, human TREM2/DAP12 fusion protein (human, UniProt O43914 41-113, limits assumed). The test can be described thus: cell-based or functional assay.
T3 sequence (O43914 other isoform, or with tags, fused parts or gaps limits assumed): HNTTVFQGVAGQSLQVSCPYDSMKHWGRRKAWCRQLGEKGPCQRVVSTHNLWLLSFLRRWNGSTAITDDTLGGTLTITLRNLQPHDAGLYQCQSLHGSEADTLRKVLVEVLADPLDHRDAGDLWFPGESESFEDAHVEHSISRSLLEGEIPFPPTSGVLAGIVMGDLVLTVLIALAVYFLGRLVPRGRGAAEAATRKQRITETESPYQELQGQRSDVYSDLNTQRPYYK
The target of test [5] is T3, human TREM2/DAP12 fusion protein. The test can be described thus: cell-based or functional assay. This is another data set of the same source.
Test [6] has as its target T1, human TREM2 expressed on cells. The test can be described thus: cell-based or functional assay.
Test [7] addresses T4, human TREM2 Fc fusion (entire TREM2 ECD; only one Fc arm fused to TREM2) (human, UniProt Q9NZC2 19-174).
T4 construct: also called huTREM2-Fc; recombinant hTREM2
T4 sequence: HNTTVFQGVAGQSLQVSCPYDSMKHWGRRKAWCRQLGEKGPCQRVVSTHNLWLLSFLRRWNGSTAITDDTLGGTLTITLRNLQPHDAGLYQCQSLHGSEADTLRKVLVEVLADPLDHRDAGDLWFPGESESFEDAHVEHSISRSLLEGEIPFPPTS
Briefly: BLI, IgG, avid. The procedure, abridged: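 Avid format: AHQ-loaded IgGs exposed to 100 nM human or cyno TREM2-Fc antigen, 3 min association, 3 min dissociation in buffer. Monovalent format: human TREM2-Fc loaded on AHQ sensors, exposed to 100 nM Fab. Kinetics fit to 1:1 model, run at 25° C.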
On the technique in general: In BLI a coated tip is dipped into the sample, and binding shifts an interference pattern.

Test [8] has as its target T3, human TREM2/DAP12 fusion protein. The test can be described thus: cell-based or functional assay. This is another data set of the same source.
Test [9] addresses T1, human TREM2 expressed on cells. Briefly: FACS, hTREM2 expressing cell line. A general note: In flow cytometry, cells or beads pass a laser one at a time.
Test [10] concerns the target T3, human TREM2/DAP12 fusion protein. The test can be described thus: cell-based or functional assay. The source holds these as a separate data set.
For test [11], the target named is T4, human TREM2 Fc fusion (entire TREM2 …). Briefly: BLI, Fab, monovalent.

As usually defined, the Kd is the free concentration of one partner at which half of the binding sites on the other are occupied at equilibrium, for simple one-to-one binding.

Like-named read-outs stand apart in the source and are kept apart here.

B1: AL2p-3 (antibody, V domains shown)
VH: QVQLVQSGAEVKKPGSSVKVSCKASGYAFSSSWMNWVRQAPGQGLEWMGRIYPGEGDTNYAQKFQGRVTITADESTSTAYMELSSLRSEDTAVYYCARLLRNQPGESYAMDYWGQGTLVTVSS
VL: DVVMTQTPLSLSVTPGQPASISCRSSQSLVHSNGYTYLHWYLQKPGQSPQLLIYKVSNRFSGVPDRFSGSGSGTDFTLKISRVEAEDVGVYYCSQSTRVPYTFGQGTKLEIK
notes: AL2p-h50 variant; Fab and IgG formats under one id
Regarding B1, the Kd amounted to 2.3 nM in test [1], 4580 nM in [2], 2.3 nM in test [3] and 1.19 nM in [7]. In addition, the “luciferase activation, soluble IgG, EC50” value in test [4] came to 50 nM. Also, the “Luciferase activation plate bound 33 nM IgG, FOC” value in [5] turned out to be 6.03 FOC. In addition, the “Luciferase activation soluble 10 nM IgG, FOC” value in test [5] is 1.29 FOC. The “Survival huDCs plate bound IgG, AUC” value in [6] was determined as 363000 AUC.

B2: AL2p (parental mouse anti-TREM2 antibody) (antibody, V domains shown)
VH: QVQLQQSGPELVKPGASLKISCKASGYAFSSSWMNWVKQRPGKGLEWIGRIYPGDGDTNYNGEFRVRATLTADTSSTTAYMQLSSLTSEDSAVYFCARLLRNQPGESYAMDYWGQGASVTVSS
VL: DVVMTQTPLSLPVSLGDQASISCRSSQSLVHSNGYTYLHWYLQKPGQSPKLLIYKVSNRFSGVPDRFSGSGSGTDFTLKISRVEADDLGVYFCSQSTRVPYTFGGGTKLEIK
notes: Parental mouse antibody; Fab and IgG formats under one id; also called 9F5; 9F5a
For the molecule B2, the “luciferase activation, soluble IgG, EC50” value in test [8] came out at 19.3 nM. In addition, the affinity in [9], expressed as Kd, was 3.04 nM. Also, the “Reporter assay soluble IgG (EC50, nM)” value in test [10] is 19 nM.

B3: AL2p-5 (antibody, V domains shown)
VH: QVQLVQSGAEVKKPGSSVKVSCKASGYAFSSSWMNWVRQAPGQGLEWMGRIYPGDGDTNYAQKFQGRVTITADESTSTAYMELSSLRSEDTAVYYCARLLRNQPGESYAMDYWGQGTLVTVSS
VL: DVVMTQTPLSLSVTPGQPASISCRSSQSLVHSNRYTYLHWYLQKPGQSPQLLIYKVSNRFSGVPDRFSGSGSGTDFTLKISRVEAEDVGVYYCSQSTRVPYTFGQGTKLEIK
notes: AL2p-h50 variant; Fab and IgG formats under one id; also called AL2-5
Consider B3, for which the Kd in test [1] came to 2 nM; in test [2], 4630 nM; in test [11] it was 99.2 nM; in test [3], 2 nM. In addition, the “luciferase activation, soluble IgG, EC50” value in test [4] amounted to 38.1 nM. Further, in test [5], the “Luciferase activation plate bound 33 nM IgG, FOC” value was determined as 9.99 FOC. Besides, the “Luciferase activation soluble 10 nM IgG, FOC” value in test [5] was determined as 1.27 FOC. Also, the “Survival huDCs plate bound IgG, AUC” value in [6] was 710000 AUC.

B4: AL2p-6 (antibody, V domains shown)
VH: QVQLVQSGAEVKKPGSSVKVSCKASGYAFSSSWMNWVRQAPGQGLEWMGRIYPGDGDTNYAQKFQGRVTITADESTSTAYMELSSLRSEDTAVYYCARLLRNQPGESYAMDYWGQGTLVTVSS
VL: DVVMTQTPLSLSVTPGQPASISCRSSQSLVHSNWYTYLHWYLQKPGQSPQLLIYKVSNRFSGVPDRFSGSGSGTDFTLKISRVEAEDVGVYYCSQSTRVPYTFGQGTKLEIK
notes: as for B1
For the molecule B4, the Kd in [1] came out at 4.2 nM; in test [2] it was 1150 nM; in test [11] it was 259 nM; in test [3], 4.2 nM; in test [7], 1.06 nM. In addition, the “luciferase activation, soluble IgG, EC50” value in test [4] is 38.6 nM. The “Luciferase activation plate bound 33 nM IgG, FOC” value in test [5] came out at 5.39 FOC. Further, in test [5], the “Luciferase activation soluble 10 nM IgG, FOC” value was determined as 1.2 FOC. Moreover, the “Survival huDCs plate bound IgG, AUC” value in test [6] worked out at 547000 AUC.

B5: AL2p-62 (antibody, V domains shown)
VH: QVQLVQSGAEVKKPGASVKVSCKASGYAFSSQWMNWVRQAPGQRLEWIGRIYPGEGDTNYAGKFQGRVTITADTSASTAYMELSSLRSEDTAVYYCARLLRNQPGESYAMDYWGQGTLVTVSS
VL: DVVMTQSPDSLAVSLGERATINCRSSQSLVHSNQYTYLHWYQQKPGQSPKLLIYKVSNRFSGVPDRFSGSGSGTDFTLTISSLQAEDVAVYYCSQSTRVPYTFGGGTKVEIK
notes: Fab and IgG formats under one id
For B5, the values for the Kd in test [2], in test [11] and in test [3] were 19.4 nM, 21.1 nM and 2.63 nM, respectively. Moreover, the “luciferase activation, soluble IgG, EC50” value in [4] was 25.1 nM.

The record behind these values is US20200317776A1 (published 2020).
